Experimental data published in US20230331779A1 (SHAANXI MICOT TECHNOLOGY, published 2023).

Target: T1, calcium-sensing receptor (CaSR)
T1 sequence (P41180 whole entry, species assumed, looked up): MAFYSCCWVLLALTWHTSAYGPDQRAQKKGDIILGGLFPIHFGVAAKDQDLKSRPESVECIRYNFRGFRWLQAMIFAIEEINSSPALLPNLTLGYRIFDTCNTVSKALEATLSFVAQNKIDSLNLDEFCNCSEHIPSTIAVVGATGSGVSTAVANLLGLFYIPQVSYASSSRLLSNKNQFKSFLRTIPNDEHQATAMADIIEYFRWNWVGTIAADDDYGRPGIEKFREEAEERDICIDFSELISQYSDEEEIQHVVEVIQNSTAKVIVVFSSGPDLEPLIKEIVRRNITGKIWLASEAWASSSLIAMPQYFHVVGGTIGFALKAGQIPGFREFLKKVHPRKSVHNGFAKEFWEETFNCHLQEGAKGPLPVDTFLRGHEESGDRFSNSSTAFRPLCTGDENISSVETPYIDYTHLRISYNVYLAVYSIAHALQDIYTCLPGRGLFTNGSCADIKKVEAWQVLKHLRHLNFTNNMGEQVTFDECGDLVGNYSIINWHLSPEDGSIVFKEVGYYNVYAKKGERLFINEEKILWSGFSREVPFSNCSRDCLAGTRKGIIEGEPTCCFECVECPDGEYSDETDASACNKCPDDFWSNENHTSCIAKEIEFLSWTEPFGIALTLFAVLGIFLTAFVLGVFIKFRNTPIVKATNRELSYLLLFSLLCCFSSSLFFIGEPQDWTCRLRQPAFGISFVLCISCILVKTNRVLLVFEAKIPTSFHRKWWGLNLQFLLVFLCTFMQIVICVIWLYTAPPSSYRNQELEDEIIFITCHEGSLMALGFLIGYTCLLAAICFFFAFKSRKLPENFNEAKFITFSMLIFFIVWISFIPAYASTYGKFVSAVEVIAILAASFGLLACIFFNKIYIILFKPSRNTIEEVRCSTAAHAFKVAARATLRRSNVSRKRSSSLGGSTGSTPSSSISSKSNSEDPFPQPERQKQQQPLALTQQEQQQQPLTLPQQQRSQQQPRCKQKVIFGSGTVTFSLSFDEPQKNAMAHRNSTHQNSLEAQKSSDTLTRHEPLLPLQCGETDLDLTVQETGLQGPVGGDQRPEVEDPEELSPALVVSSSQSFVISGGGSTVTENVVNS
Assay: cell-based or functional assay

EC50 of agonistic activity on HEK293-CaSR cells, HTRF IP-1 competition method, at a Ca2+ concentration of 1.2 mM: 84.7 µM | EC50 of agonistic activity on HEK293-CaSR cells, HTRF IP-1 competition method, in the absence of Ca2+: 980 µM
B1: polypeptide of Example 1 (active polypeptide SEQ ID NO: 10) (peptide)
peptide 1: CARRRAR
peptide 2: YXFGGC
modifications: D-Tyr 1; Aib (2-aminoisobutyric acid) 2; D-Phe 3; L-Cys 6 disulfide-bonded to D-Cys 1 of the Y chain; free amino and carboxyl termini (H2N-D-Tyr-Aib-D-Phe-Gly-Gly-L-Cys-OH); N-terminal acetyl (Ac); C-terminal amide (NH2); all residues D-amino acids (Ac-D-Cys-D-Ala-D-Arg-D-Arg-D-Arg-D-Ala-D-Arg-NH2); D-Cys 1 disulfide-bonded to L-Cys 6 of the X chain
